Tests used:
[1] = biological target: T1, silk fibroin, sericin-extracted, from degummed Bombyx mori silk, dissolved in 9.3 M LiBr and dialysed (Bombyx mori, UniProt P05790 22-5263; P21828 17-262, limits assumed); test: HPLC of 23RGD extracted from lyophilised silk precipitate; formulation AVHI
T1 construct: also called silk molecules
Protocol: (§1) The amount of 23RGD bound to silk precipitates was quantified by analyzing lyophilized samples. The 23RGD was removed by incubating the samples for 4 hours in a dissolving buffer, then centrifuging on an Eppendorf 5415C (Eppendorf North America Inc., Westbury, N.Y.) at 16,000 g (RCF) for 30 minutes and the supernatant collected. This supernatant was then centrifuged in identical fashion and the final supernatant collected for HPLC analysis using a PerkinElmer Series 200 (PerkinElmer, Waltham, Mass.). The 23RGD peak areas from each curve were compared against a standard curve. 1-Way ANOVA was used to test for significant differences caused by changing silk concentration, 23RGD concentration, and accelerant volume. A Student's t-test was used to test the significance of differences resulting from altered ethanol concentrations.

[2] = biological target: T1, silk fibroin, sericin-extracted, from …; test: HPLC of 23RGD extracted from lyophilised silk precipitate; formulation SCLO
Protocol: as §1

[3] = biological target: T1, silk fibroin, sericin-extracted, from …; test: HPLC of 23RGD extracted from lyophilised silk precipitate; formulation BASE
Protocol: as §1

[4] = biological target: T1, silk fibroin, sericin-extracted, from …; test: HPLC of 23RGD extracted from lyophilised silk precipitate; formulation RHI
Protocol: as §1

[5] = biological target: T1, silk fibroin, sericin-extracted, from …; test: HPLC of 23RGD extracted from silk precipitate; formulation ECLO, against the calculated ratio
Protocol: as §1
(§2) Few of the silk precipitates entrained a molar ratio similar to what was initially calculated (FIG. 23). Four groups, SCVLO, AVHI, RHI, and RLO contained ratios similar to their calculated values of RGD per mole of silk. The six remaining groups contained ratios substantially greater than their calculated values. In the cases of AVLO, BASE, RMED, and SCLO, the RGD quantities were about 2-fold greater than expected. Although not wishing to be limited by theory, this greater observed molar ratio may be indicative of the formation of a RGD bi-layer. […]

[6] = biological target: T1, silk fibroin, sericin-extracted, from …; test: HPLC of 23RGD extracted from lyophilised silk precipitate; formulation printed as RLO
Protocol: as §1

[7] = biological target: T1, silk fibroin, sericin-extracted, from …; test: HPLC of 23RGD extracted from lyophilised silk precipitate; formulation printed as RMED
Protocol: as §1

[8] = biological target: T1, silk fibroin, sericin-extracted, from …; test: HPLC of 23RGD extracted from silk precipitate; formulation 0.6S 3R 10:1
Protocol: as §1
Precipitate samples generated at a calculated 10:1 23RGD:silk ratio consistently generated a “correct” molecular binding ratio. In the case of AVHI, this runs contrary to the trend of bound 23RGD concentrations being approximately double the projected values as indicated by AVLO and BASE (about 5:1 and about 9:1, respectively). This might be explained by saturation of the silk with 23RGD in the case of 10:1 23RGD precipitates. […]

[9] = biological target: T1, silk fibroin, sericin-extracted, from …; test: reading of the HPLC ratios of the silk precipitates
Protocol: as §1

[10] = biological target: T1, silk fibroin, sericin-extracted, from …; test: HPLC of 23RGD extracted from lyophilised silk precipitate; formulation SCVLO
Protocol: as §1

[11] = biological target: T1, silk fibroin, sericin-extracted, from …; test: HPLC of 23RGD extracted from the rinsed silk gel, against a standard curve
Text: 23RGD-infused gels were studied to quantify the amount of 23RGD bound to the silk-hydrogel device as well as the quantity of free 23RGD which might be rinsed free of the device under relevant conditions. Briefly, samples of 23RGD-infused gel were cast and rinsed according to the methods above, with samples of rinse buffer being collected from each rinse for subsequent analysis by HPLC. Additionally, subsequent to the last rinse, the gel samples were mechanically pulverized by means of a stainless steel stirring rod and the adsorbed 23RGD removed by incubation for 4 hours in a dissolving buffer. This mixture of gel and solvent was then centrifuged on an Eppendorf 5415C at 16,000 g RCF for 30 minutes. The supernatant was collected and centrifuged another 30 minutes at 16,000 g RCF after which time the supernatant was collected in a sample vial for HPLC analysis. Samples of rinse buffer from the first and last rinse were centrifuged in the same fashion after being diluted with the same solvent the gel was extracted with in a volumetric ratio of 1 part rinse buffer to 4 parts solvent. To ensure 23RGD-hydrogel device rinse-exposed surface area was not a limiting factor, the same rinse and extraction process was performed upon devices pulverized after gelation and before rinsing. […]

[12] = biological target: T1, silk fibroin, sericin-extracted, from …; test: HPLC of 23RGD extracted from silk precipitate; formulation AVLO, against the calculated ratio
Protocol: as §1, §2

[13] = biological target: T1, silk fibroin, sericin-extracted, from …; test: HPLC of 23RGD extracted from lyophilised silk precipitate; formulation AVLO
Protocol: as §1

B1: 23RGD peptide (HOOC-GRGDIPASSKG4SRL6R-NH2) (peptide)
peptide: GRGDIPASSKGGGGSRLLLLLLR
modifications: not fully specified; -NH2 at the Arg end as printed (HOOC-Gly-...-Arg-NH2). An optional variant, SEQ ID NO: 2, is acylated (Ac-) and has D-arginines.
notes: also called 23RDG
23RGD:silk ratio bound [1]: 10.5 mol 23RGD per mol silk
23RGD:silk ratio bound [2]: 9.9 mol 23RGD per mol silk
23RGD:silk ratio bound [3]: 8.7 mol 23RGD per mol silk
23RGD:silk ratio bound [4]: 10.7 mol 23RGD per mol silk
fold of bound RGD over the calculated RGD:silk ratio [5]: ~1.5 fold
23RGD:silk ratio bound [6]: 1.1 mol 23RGD per mol silk
23RGD:silk ratio bound [7]: 6.95 mol 23RGD per mol silk
23RGD:silk ratio bound [8]: ~10 mol 23RGD per mol silk
apparent saturation, 23RGD:silk ratio [9]: ~10 mol 23RGD per mol silk
23RGD:silk ratio bound [10]: 11 mol 23RGD per mol silk
23RGD:silk ratio bound [11]: 3.35 mol 23RGD per mol silk
fold of bound RGD over the calculated RGD:silk ratio [12]: ~2 fold
23RGD:silk ratio bound [13]: 5.2 mol 23RGD per mol silk
